Biological target: SpyCatcher::HBsAg VLP (hepatitis B surface antigen genetically fused to SpyCatcher) (Streptococcus pyogenes | hepatitis B virus)
Assay: covalent (isopeptide) coupling, SDS-PAGE with Coomassie staining and densitometry; SpyCatcher::HBsAg VLP incubated with Pfs25::SpyTag at molar ratio 1.5, 0.5 or 0.1, 3 h to overnight at room temperature, with 10x reaction buffer (40 mM Na2HPO4, 200 mM sodium citrate, pH 6.2); dialysed (100 kDa cut-off) against TBS; conjugation efficiency = % of total SpyCatcher::HBsAg coupled to Pfs25::SpyTag

For Pfs25::SpyTag (Pfs25-SpyTag-Ctag), the conjugation efficiency (% of total SpyCatcher::HBsAg coupled to Pfs25::SpyTag) at molar ratio 0.1 was 10%, the conjugation efficiency (% of total SpyCatcher::HBsAg coupled to Pfs25::SpyTag) at molar ratio 0.5 was 50% and the conjugation efficiency (% of total SpyCatcher::HBsAg coupled to Pfs25::SpyTag) at molar ratio 1.5 was over 90%.

Source: PMC6921968
